Measured values from article PMC3961393, “Progranulin-Derived Atsttrin Directly Binds to TNFRSF25 (DR3) and Inhibits TNF-Like Ligand 1A (TL1A) Activity” (PLoS ONE, 2014).

Experiments:
[1] = biological target: T1, Recombinant protein hTL1A (human, UniProt O95150 72-251); assay: ELISA; solid phase inhibition assay: 100 ng of TNFa or TL1A coated overnight, 100 ng of TNFR2 or DR3 added together with various dose of Atsttrin, bound receptor detected by anti-TNFR2 or anti-DR3 antibody and HRP secondary antibody; conditions: both partners purified
T1 construct: human TL1A, recombinant; also called TNF-Like Ligand 1A; source: bought: R&D system (Cat# 1319-TL-010)
T1 sequence (looked up): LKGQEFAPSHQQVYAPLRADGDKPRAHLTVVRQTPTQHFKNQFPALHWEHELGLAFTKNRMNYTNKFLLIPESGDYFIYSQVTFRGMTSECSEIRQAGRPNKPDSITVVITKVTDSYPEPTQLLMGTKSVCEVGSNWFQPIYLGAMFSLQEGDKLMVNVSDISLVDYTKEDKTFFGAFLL

Recombinant hPGRN = biological target: T2, Recombinant hPGRN (human, UniProt P28799 18-593); assay: ELISA; solid phase binding assay: various dose of Atsttrin or progranulin coated on the plate overnight, biotinylated TNFR2, DR3 or BSA added, detected with avidin-HRP, OD 450 nm; conditions: both partners purified
T2 construct: human progranulin, recombinant; also called Progranulin; source: bought: Adipogen (Cat. No. AG-40A-0188)
T2 sequence (looked up): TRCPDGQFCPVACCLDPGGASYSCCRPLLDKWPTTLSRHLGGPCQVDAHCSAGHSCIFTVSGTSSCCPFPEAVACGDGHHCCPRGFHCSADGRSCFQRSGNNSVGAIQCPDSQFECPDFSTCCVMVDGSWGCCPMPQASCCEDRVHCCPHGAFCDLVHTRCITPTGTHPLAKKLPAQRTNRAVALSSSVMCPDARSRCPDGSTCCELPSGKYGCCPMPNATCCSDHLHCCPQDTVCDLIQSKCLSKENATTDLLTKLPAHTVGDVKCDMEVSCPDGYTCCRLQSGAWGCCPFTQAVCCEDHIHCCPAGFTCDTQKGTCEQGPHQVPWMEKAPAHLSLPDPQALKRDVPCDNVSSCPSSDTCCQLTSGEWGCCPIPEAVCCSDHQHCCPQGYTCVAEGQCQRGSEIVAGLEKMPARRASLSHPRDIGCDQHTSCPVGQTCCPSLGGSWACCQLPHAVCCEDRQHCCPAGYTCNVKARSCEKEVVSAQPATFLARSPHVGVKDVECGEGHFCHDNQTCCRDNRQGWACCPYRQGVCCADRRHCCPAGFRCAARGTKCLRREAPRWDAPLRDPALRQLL

binding result [1]: binds
binding result (Recombinant hPGRN): binds
B1: recombinant extracellular portion of hDR3 (domain or fragment, human, UniProt Q93038 25-199, looked up)
chain: QGGTRSPRCDCAGDFHKKIGLFCCRGCPAGHYLKAPCTEPCGNSTCLVCPQDTFLAWENHHNSECARCQACDEQASQVALENCSAVADTRCGCKPGWFVECQVSQCVSSSPFYCQPCLDCGALHRHTRLLCSRRDTDCGTCLPGFYEHGDGCVSCPTSTLGSCPERCAAVCGWRQ
modifications: biotinylated (site not stated) in the direct solid phase binding assay; biotin is not mentioned for the inhibition assay
notes: human DR3 (TNFRSF25), recombinant extracellular portion; As I recall, this catalogue item is an Fc chimera; also called DR3 extracellular portion; TNFRSF25; source: bought: R&D system (Cat# 943-D3-050)
